According to PMC4404914, “Adenoviral L4 33K forms ring-like oligomers and stimulates ATPase activity of IVa2: implications in viral genome packaging” (Frontiers in Microbiology, 2015):

B1: 6His-tagged HAdV5 IVa2, purified from E. coli (natural protein)
chain: METRGRRPAALQHQQDQPQAHPGQRAARSAPLHRDPDYADEDPAPVERHDPGPSGRAPTTAVQRKPPQPAKRGDMLDRDAVEQVTELWDRLELLGQTLKSMPTADGLKPLKNFASLQELLSLGGERLLADLVRENMRVRDMLNEVAPLLRDDGSCSSLNYQLHPVIGVIYGPTGCGKSQLLRNLLSSQLISPTPETVFFIAPQVDMIPPSELKAWEMQICEGNYAPGPDGTIIPQSGTLRPRFVKMAYDDLILEHNYDVSDPRNIFAQAAARGPIAIIMDECMENLGGHKGVSKFFHAFPSKLHDKFPKCTGYTVLVVLHNMNPRRDMAGNIANLKIQSKMHLISPRMHPSQLNRFVNTYTKGLPLAISLLLKDIFRHHAQRSCYDWIIYNTTPQHEALQWCYLHPRDGLMPMYLNIQSHLYHVLEKIHRTLNDRDRWSRAYRARKTPK
notes: IVa2 of human adenovirus serotype 5; synthetic gene cassette, codon-optimized for bacteria, in pET28a (pET28-IVa2); the results speak of the full-length IVa2 band; A faster migrating band, perhaps a degradation product of IVa2, was also in the preparation; also called purified IVa2; source: E. coli BL21 (DE3) pLysS, purified (HiTrap NiNTA, HiPrep 16/10 SP-XL cation exchange)

Tests used:
[1] = biological target: the molecule itself; experiment: transmission electron microscopy (negative stain); purified protein on glow-discharged carbon-coated formvar grids, rinsed with 20 mM Tris pH 7.5, 2% uranyl acetate
[2] = biological target: B1; experiment: cell-based or functional assay

Row | Binder | binding result [1] | ATPase activity of purified IVa2 (inorganic phosphate after 30 min at 37°C) with 33K and HAdV5 Tp-DNA; no significant increase with only IVa2 + 33K, 33K + Tp-DNA or IVa2 + Tp-DNA [2] [fold]
1 | B1 | binds | 
2 | 6His-tagged HAdV5 L4 33K, purified from E. coli (natural protein) MAPKKKLQLPPPPTDEEEYWDSQAEEVLDEEEEDMMEDWESLDEEASEVEEVSDETPSPSVAFPSPAPQKSATGSSMATTSAPQAPPALPVRRPNRRWDTTGTRAAHTAPAAAAAAATAAATQKQRRPDSKTLTKPKKSTAAAAAGGGALRLAPNEPVSTRELRNRIFPTLYAIFQQSRGQEQELKIKNRSLRSLTRSCLYHKSEDQLRRTLEDAEALFSKYCALTLKD |  | 3
